biological target: bub1b_human BUB1B (UniProt O60566)
Sequence (O60566 whole entry): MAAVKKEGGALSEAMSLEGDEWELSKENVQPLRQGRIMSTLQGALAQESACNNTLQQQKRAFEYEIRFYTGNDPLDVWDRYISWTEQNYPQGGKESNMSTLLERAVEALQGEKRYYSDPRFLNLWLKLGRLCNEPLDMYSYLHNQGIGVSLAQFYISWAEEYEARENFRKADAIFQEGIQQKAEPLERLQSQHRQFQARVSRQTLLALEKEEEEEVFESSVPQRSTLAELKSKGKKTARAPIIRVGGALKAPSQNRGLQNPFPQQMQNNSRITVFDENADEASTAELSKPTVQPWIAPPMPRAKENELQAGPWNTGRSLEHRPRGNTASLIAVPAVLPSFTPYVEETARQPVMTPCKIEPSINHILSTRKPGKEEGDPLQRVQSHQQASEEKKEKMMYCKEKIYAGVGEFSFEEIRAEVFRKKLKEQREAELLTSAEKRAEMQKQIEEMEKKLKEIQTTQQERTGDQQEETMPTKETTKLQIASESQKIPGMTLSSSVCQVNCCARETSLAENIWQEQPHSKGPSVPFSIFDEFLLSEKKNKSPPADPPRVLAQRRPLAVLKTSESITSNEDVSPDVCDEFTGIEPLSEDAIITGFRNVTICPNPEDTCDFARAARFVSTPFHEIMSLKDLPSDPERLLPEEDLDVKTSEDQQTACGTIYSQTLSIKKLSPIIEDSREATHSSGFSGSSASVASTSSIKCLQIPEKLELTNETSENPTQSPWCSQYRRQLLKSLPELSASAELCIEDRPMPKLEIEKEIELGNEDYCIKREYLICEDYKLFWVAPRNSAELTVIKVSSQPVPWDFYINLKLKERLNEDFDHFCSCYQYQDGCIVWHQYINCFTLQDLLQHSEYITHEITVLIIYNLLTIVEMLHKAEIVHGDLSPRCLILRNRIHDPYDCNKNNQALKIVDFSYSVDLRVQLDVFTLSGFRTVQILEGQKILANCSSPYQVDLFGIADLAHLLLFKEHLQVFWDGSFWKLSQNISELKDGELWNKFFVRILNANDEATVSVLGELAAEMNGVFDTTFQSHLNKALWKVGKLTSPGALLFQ

Effect of a mutation on the interaction, disrupting interaction:
Outer kinetochore KNL1 complex subunit KNL1 (Homo sapiens), Q8NG31-2 I213A;F215A;F218A
Outer kinetochore KNL1 complex subunit KNL1 (Homo sapiens), Q8NG31-2 F215A;I219A
Outer kinetochore KNL1 complex subunit KNL1 (Homo sapiens), Q8NG31-2 F215A;F218A
